Measurements published in patent US20050221395A1, “Methods and products based on oligomerization of stress proteins” (priority 2002, published 2005).

Columns and labels:
[1] = NECA ligand binding
Method: Dimer content also correlates with the ability of gp96 to bind NECA. Using the gp96-peptide complex isolated from CT-26 tumors, aliquots of each preparation were also analyzed for NECA ligand binding.

[2] = % dimer by size exclusion chromatography (SEC); format: physicochemical
Method: Gp96-peptide complex was isolated from murine CT-26 tumors. Separate aliquots of each preparation were either maintained at 4° C. (untreated) or subjected to mild heat treatment to denature the complex.
HPLC size exclusion chromatography is currently being optimized and has been run under a few different formats. The column was either a TSK 3000SWXL (Toso Haus) or a Superose 6 (Amersham Pharmacia) equilibrated in 10 mM phosphate buffer, pH 7.1, with 300 mM NaCl. All experiments were run at room temperature on a Waters Alliance or HP 1100 HPLC systems at a flow rate of 0.5 mL/min. The following results for human tumor derived gp96 (reported in Table 3, below) were all analyzed on the Superose 6 column. % dimer values represent the area percent of the dimer peak relative to total peak area.

[3] = test system: murine antigen presenting cells; experiment: MCP-1 secretion by antigen presenting cells; format: cell-based
Method: (§1) Further experiments indiate that dimer content correlates with the ability of gp96 to stimulate chemokine/nitric oxide release by antigen presenting cells. Gp96 purified from the Meth-A murine fibrosarcoma tumors, subjected to both thermal and pH perturbations. This material was analyzed by SEC and NECA binding for its ability to induce murine antigen presenting cells to secrete MCP-1 and nitric oxide. […] NECA ligand binding and both MCP-1 and NO production decreased concomitantly with the loss of dimer. A similar trend was observed upon exposure of gp96 to pH 3, but not pH 7 or 9.

[4] = test system: murine antigen presenting cells; experiment: nitric oxide (NO) secretion by antigen presenting cells; format: cell-based
Method: as §1

NECA binding ability ([1]; heated to 50° C. and 60° C., at 30 minutes (FIG. 2B)): Neither sample of gp96 could bind NECA
NECA binding ability ([1]; pH 3.0 (FIG. 2F)): markedly reduced
B1: gp96: Gp96 purified from the Meth-A murine fibrosarcoma tumors, subjected to thermal and pH perturbations (FIG. 2) (protein, UniProt P08113 22-802, looked up)
Endoplasmin: DDEVDVDGTVEEDLGKSREGSRTDDEVVQREEEAIQLDGLNASQIRELREKSEKFAFQAEVNRMMKLIINSLYKNKEIFLRELISNASDALDKIRLISLTDENALAGNEELTVKIKCDKEKNLLHVTDTGVGMTREELVKNLGTIAKSGTSEFLNKMTEAQEDGQSTSELIGQFGVGFYSAFLVADKVIVTSKHNNDTQHIWESDSNEFSVIADPRGNTLGRGTTITLVLKEEASDYLELDTIKNLVRKYSQFINFPIYVWSSKTETVEEPLEEDEAAKEEKEESDDEAAVEEEEEEKKPKTKKVEKTVWDWELMNDIKPIWQRPSKEVEEDEYKAFYKSFSKESDDPMAYIHFTAEGEVTFKSILFVPTSAPRGLFDEYGSKKSDYIKLYVRRVFITDDFHDMMPKYLNFVKGVVDSDDLPLNVSRETLQQHKLLKVIRKKLVRKTLDMIKKIADEKYNDTFWKEFGTNIKLGVIEDHSNRTRLAKLLRFQSSHHSTDITSLDQYVERMKEKQDKIYFMAGSSRKEAESSPFVERLLKKGYEVIYLTEPVDEYCIQALPEFDGKRFQNVAKEGVKFDESEKTKESREATEKEFEPLLNWMKDKALKDKIEKAVVSQRLTESPCALVASQYGWSGNMERIMKAQAYQTGKDISTNYYASQKKTFEINPRHPLIRDMLRRIKEDEDDKTVMDLAVVLFETATLRSGYLLPDTKAYGDRIERMLRLSLNIDPEAQVEEEPEEEPEDTSEDAEDSEQDEGEEMDAGTEEEEEETEKESTEKDEL
modifications: Meth-A tumor derived
dimer level ([2]; heated at 50° C. and 60° C., at 30 minutes (FIG. 2A)): Neither sample contained dimers
dimer levels ([2]; pH 3.0 (FIG. 2E)): markedly reduced
ability to stimulate murine APC secretion of MCP-1 ([3]; heated to 50° C. and 60° C. for 30 minutes (FIG. 2C)): rapid drop
MCP-1 secretion by murine APCs ([3]; pH 3.0 (FIG. 2G)): markedly reduced
ability to stimulate murine APC secretion of NO ([4]; heated to 50° C. and 60° C. for 30 minutes (FIG. 2D)): rapid drop
NO secretion by murine APCs ([4]; pH 3.0 (FIG. 2H)): markedly reduced
